{
  "source": "paper doi:10.1101/586255v1",
  "test_system": "N[C@@H](CO)C(=O)O",
  "assay": "purified protein, by the assay type",
  "settings": "pH 7.6; 37.0 °C",
  "data": [
    {"substance": "HsSerRS (Homo sapiens)", "values": [
      {"measurement": "Km", "result": "1083 ± 156", "unit": "µM"}
    ]}
  ]
}
